Test results as given in IntAct's records for PubMed 12117771.

B1: Cadherin-related family member 2 (Homo sapiens), Q9BYE9 (parent)
chain: MAQLWLSCFLLPALVVSVAANVAPKFLANMTSVILPEDLPVGAQAFWLVAEDQDNDPLTYGMSGPNAYFFAVTPKTGEVKLASALDYETLYTFKVTISVSDPYIQVQREMLVIVEDRNDNAPVFQNTAFSTSINETLPVGSVVFSVLAVDKDMGSAGMVVYSIEKVIPSTGDSEHLFRILANGSIVLNGSLSYNNKSAFYQLELKACDLGGMYHNTFTIQCSLPVFLSISVVDQPDLDPQFVREFYSASVAEDAAKGTSVLTVEAVDGDKGINDPVIYSISYSTRPGWFDIGADGVIRVNGSLDREQLLEADEEVQLQVTATETHLNIYGQEAKVSIWVTVRVMDVNDHKPEFYNCSLPACTFTPEEAQVNFTGYVDEHASPRIPIDDLTMVVYDPDKGSNGTFLLSLGGPDAEAFSVSPERAVGSASVQVLVRVSALVDYERQTAMAVQVVATDSVSQNFSVAMVTIHLRDINDHRPTFPQSLYVLTVPEHSATGSVVTDSIHATDPDTGAWGQITYSLLPGNGADLFQVDPVSGTVTVRNGELLDRESQAVYYLTLQATDGGNLSSSTTLQIHLLDINDNAPVVSGSYNIFVQEEEGNVSVTIQAHDNDEPGTNNSRLLFNLLPGPYSHNFSLDPDTGLLRNLGPLDREAIDPALEGRIVLTVLVSDCGEPVLGTKVNVTITVEDINDNLPIFNQSSYNFTVKEEDPGVLVGVVKAWDADQTEANNRISFSLSGSGANYFMIRGLVLGAGWAEGYLRLPPDVSLDYETQPVFNLTVSAENPDPQGGETIVDVCVNVKDVNDNPPTLDVASLRGIRVAENGSQHGQVAVVVASDVDTSAQLEIQLVNILCTKAGVDVGSLCWGWFSVAANGSVYINQSKAIDYEACDLVTLVVRACDLATDPGFQAYSNNGSLLITIEDVNDNAPYFLPENKTFVIIPELVLPNREVASVRARDDDSGNNGVILFSILRVDFISKDGATIPFQGVFSIFTSSEADVFAGSIQPVTSLDSTLQGTYQVTVQARDRPSLGPFLEATTTLNLFTVDQSYRSRLQFSTPKEEVGANRQAINAALTQATRTTVYIVDIQDIDSAARARPHSYLDAYFVFPNGSALTLDELSVMIRNDQDSLTQLLQLGLVVLGSQESQESDLSKQLISVIIGLGVALLLVLVIMTMAFVCVRKSYNRKLQAMKAAKEARKTAAGVMPSAPAIPGTNMYNTERANPMLNLPNKDLGLEYLSPSNDLDSVSVNSLDDNSVDVDKNSQEIKEHRPPHTPPEPDPEPLSVVLLGRQAGASGQLEGPSYTNAGLDTTDL

Variants of: B1
Settings: with mast2_human MAST2, Q6P0Q8
Sequence of mast2_human MAST2, Q6P0Q8 (Q6P0Q8 whole entry): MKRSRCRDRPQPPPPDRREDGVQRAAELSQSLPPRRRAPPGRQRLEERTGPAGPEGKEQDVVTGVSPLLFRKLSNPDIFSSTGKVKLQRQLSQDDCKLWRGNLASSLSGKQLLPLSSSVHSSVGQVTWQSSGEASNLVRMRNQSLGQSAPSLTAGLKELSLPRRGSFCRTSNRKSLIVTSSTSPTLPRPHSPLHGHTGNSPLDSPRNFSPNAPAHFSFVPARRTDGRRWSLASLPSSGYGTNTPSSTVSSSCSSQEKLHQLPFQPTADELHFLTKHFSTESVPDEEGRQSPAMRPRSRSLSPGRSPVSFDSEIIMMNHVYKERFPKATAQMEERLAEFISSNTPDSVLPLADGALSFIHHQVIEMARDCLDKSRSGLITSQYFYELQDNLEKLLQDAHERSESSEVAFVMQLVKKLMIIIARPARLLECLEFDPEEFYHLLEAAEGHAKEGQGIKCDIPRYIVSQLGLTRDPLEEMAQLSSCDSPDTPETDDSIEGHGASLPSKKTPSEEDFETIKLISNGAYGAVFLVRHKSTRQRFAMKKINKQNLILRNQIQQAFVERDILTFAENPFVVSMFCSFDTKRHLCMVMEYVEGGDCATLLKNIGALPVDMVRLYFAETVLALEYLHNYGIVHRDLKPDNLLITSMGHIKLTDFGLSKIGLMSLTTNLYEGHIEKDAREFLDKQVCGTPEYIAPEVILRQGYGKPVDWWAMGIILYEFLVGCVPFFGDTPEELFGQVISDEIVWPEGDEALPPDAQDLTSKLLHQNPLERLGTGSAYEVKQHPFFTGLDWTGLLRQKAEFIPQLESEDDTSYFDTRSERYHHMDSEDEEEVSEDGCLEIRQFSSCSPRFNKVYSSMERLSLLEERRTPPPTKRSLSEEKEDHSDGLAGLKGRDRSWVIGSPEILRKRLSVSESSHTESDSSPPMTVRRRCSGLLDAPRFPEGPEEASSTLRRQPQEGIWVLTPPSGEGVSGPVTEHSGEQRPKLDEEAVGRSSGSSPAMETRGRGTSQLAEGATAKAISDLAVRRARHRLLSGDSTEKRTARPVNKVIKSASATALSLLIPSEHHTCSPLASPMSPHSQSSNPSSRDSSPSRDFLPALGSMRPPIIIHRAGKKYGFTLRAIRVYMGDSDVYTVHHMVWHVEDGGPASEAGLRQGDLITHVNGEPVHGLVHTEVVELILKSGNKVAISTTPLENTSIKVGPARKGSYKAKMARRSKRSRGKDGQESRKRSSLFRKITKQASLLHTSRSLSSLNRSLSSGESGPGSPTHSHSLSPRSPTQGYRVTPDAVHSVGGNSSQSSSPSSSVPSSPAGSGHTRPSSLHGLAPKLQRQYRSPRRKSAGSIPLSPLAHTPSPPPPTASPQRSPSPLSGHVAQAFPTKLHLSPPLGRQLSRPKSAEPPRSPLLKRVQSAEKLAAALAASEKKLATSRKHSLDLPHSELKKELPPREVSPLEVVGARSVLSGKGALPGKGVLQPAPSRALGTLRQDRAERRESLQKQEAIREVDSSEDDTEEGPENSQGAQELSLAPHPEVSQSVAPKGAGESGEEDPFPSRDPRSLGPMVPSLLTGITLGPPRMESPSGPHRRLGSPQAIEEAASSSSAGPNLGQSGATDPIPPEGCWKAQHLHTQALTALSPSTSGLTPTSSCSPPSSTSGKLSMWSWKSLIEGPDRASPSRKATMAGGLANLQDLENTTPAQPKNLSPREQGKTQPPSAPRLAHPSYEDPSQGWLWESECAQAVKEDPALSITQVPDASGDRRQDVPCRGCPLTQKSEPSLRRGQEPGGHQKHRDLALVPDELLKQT

Row | Variant | effect of a mutation on the interaction
1 | L1310R | decreasing interaction
